The data set “cross-linking” deals with the molecule itself. Put plainly: cross-linking.
The data set “SEC-MALS” deals with the molecule itself. Put plainly: SEC-MALS.
The data set “crystal structure” deals with the molecule itself. Put plainly: crystal structure.
The data set “AUC + SEC” deals with the molecule itself. Put plainly: AUC + SEC.

“And” between values parts separate entries of the source, which are not always exact repeats. Equal values may be shown once.

B1: CCDC127^135-260-HA (C-terminal helical bundle domain) (domain or fragment, human, UniProt Q96BQ5 135-260, looked up)
chain: QPLRSAYLSCLQREENWQRRARLLLKEFEAVLTERQNIYCSLFLPRSKRLEIEKSLLVRASVDPVAADLEMAAGLTDIFQHDTYCGDVWNTNKRQNGRLMWLYLKYWELVVELKKFKRVEEAILEK
As to B1, the stoichiometry N (usually the number of molecules, sites or subunits per partner or assembly) in the data set “cross-linking” was found to be 2.

B2: MBP-tagged complete IMS domain of CCDC127, C144S with L176S/F177S/V222S/W223S (MBP-CC-CHB^C144STip, residues 48-260) (domain or fragment, human, UniProt Q96BQ5 48-260, looked up)
chain: SQKEVEKEREAYRRRTAAFQQDLEAKYHAMISENRRAVAQLSLELEKEQNRTASYREALISQGRKLVEEKKLLEQERAQVMQEKRQVQPLRSAYLSSLQREENWQRRARLLLKEFEAVLTERQNIYCSSSLPRSKRLEIEKSLLVRASVDPVAADLEMAAGLTDIFQHDTYCGDSSNTNKRQNGRLMWLYLKYWELVVELKKFKRVEEAILEK
For B2, in “SEC-MALS”, the “stoichiometry N” value is 2 to 3.

B3: MBP-tagged complete IMS domain of CCDC127, C144S (MBP-CC-CHB^C144S, residues 48-260) (domain or fragment, human, UniProt Q96BQ5 48-260, looked up)
chain: SQKEVEKEREAYRRRTAAFQQDLEAKYHAMISENRRAVAQLSLELEKEQNRTASYREALISQGRKLVEEKKLLEQERAQVMQEKRQVQPLRSAYLSSLQREENWQRRARLLLKEFEAVLTERQNIYCSLFLPRSKRLEIEKSLLVRASVDPVAADLEMAAGLTDIFQHDTYCGDVWNTNKRQNGRLMWLYLKYWELVVELKKFKRVEEAILEK
In the case of B3, in the data set “SEC-MALS”, the “stoichiometry N” value was found to be 2.

B4: CCDC127 coiled-coil domain (CCDC127^CC, residues 48-120), wild type (domain or fragment, human, UniProt Q96BQ5 48-120, looked up)
chain: SQKEVEKEREAYRRRTAAFQQDLEAKYHAMISENRRAVAQLSLELEKEQNRTASYREALISQGRKLVEEKKLL
Consider B4, for which the “stoichiometry N” value in the data set “crystal structure” was 2 and 4.

B5: CCDC127^CC D69A (residues 48-120) (domain or fragment, human, UniProt Q96BQ5 48-120, looked up)
chain: SQKEVEKEREAYRRRTAAFQQALEAKYHAMISENRRAVAQLSLELEKEQNRTASYREALISQGRKLVEEKKLL
As for B5, the “stoichiometry N” value in “AUC + SEC” amounted to 2.

B6: CCDC127^CC-K73A (residues 48-120) (domain or fragment, human, UniProt Q96BQ5 48-120, looked up)
chain: SQKEVEKEREAYRRRTAAFQQDLEAAYHAMISENRRAVAQLSLELEKEQNRTASYREALISQGRKLVEEKKLL
B6: in the data set “AUC + SEC”, the “stoichiometry N” value was 4.

B7: CCDC127 WT-HA (full-length CCDC127 with HA tag) (natural protein, human, UniProt Q96BQ5 1-260, looked up)
chain: MNNLNDPPNWNIRPNSRADGGDGSRWNYALLVPMLGLAAFRWIWSRESQKEVEKEREAYRRRTAAFQQDLEAKYHAMISENRRAVAQLSLELEKEQNRTASYREALISQGRKLVEEKKLLEQERAQVMQEKRQVQPLRSAYLSCLQREENWQRRARLLLKEFEAVLTERQNIYCSLFLPRSKRLEIEKSLLVRASVDPVAADLEMAAGLTDIFQHDTYCGDVWNTNKRQNGRLMWLYLKYWELVVELKKFKRVEEAILEK
For B7, the “stoichiometry N” value in the data set “cross-linking” was 2.

B8: MBP-tagged C-terminal helical bundle of CCDC127, C144S variant (MBP-CHB^C144S, residues 137-260) (domain or fragment, human, UniProt Q96BQ5 137-260, looked up)
chain: LRSAYLSSLQREENWQRRARLLLKEFEAVLTERQNIYCSLFLPRSKRLEIEKSLLVRASVDPVAADLEMAAGLTDIFQHDTYCGDVWNTNKRQNGRLMWLYLKYWELVVELKKFKRVEEAILEK
Regarding B8, the “stoichiometry N” value in the data set “SEC-MALS” turned out to be 2.

B9: MBP-tagged C-terminal helical bundle of CCDC127, C144S with L176S/F177S/V222S/W223S (MBP-CHB^C144STip, residues 137-260) (domain or fragment, human, UniProt Q96BQ5 137-260, looked up)
chain: LRSAYLSSLQREENWQRRARLLLKEFEAVLTERQNIYCSSSLPRSKRLEIEKSLLVRASVDPVAADLEMAAGLTDIFQHDTYCGDSSNTNKRQNGRLMWLYLKYWELVVELKKFKRVEEAILEK
For the protein B9, in “SEC-MALS”, the “stoichiometry N” value turned out to be 2.

B10: CCDC127^1-134-HA (N-terminal variant with the coiled-coil, lacking the C-terminal domain) (domain or fragment, human, UniProt Q96BQ5 1-134, looked up)
chain: MNNLNDPPNWNIRPNSRADGGDGSRWNYALLVPMLGLAAFRWIWSRESQKEVEKEREAYRRRTAAFQQDLEAKYHAMISENRRAVAQLSLELEKEQNRTASYREALISQGRKLVEEKKLLEQERAQVMQEKRQV
For the protein B10, in “cross-linking”, the “stoichiometry N” value worked out at 2.

The values are drawn from doi:10.64898/2025.12.11.693622 (bioRxiv, 2025).
